# Experimental data: patent publication US20240279325A1 (Chugai, published 2024)
# Key:
# [1] = molecular target: T1, human FcγRIIIa type V (allotype V158) extracellular domain with C-terminal His tag (human, UniProt P08637 17-208); assay: SPR (Biacore), antibody captured, FcγR analyte
# T1 construct: also called FcγRIIIaV
# [2] = molecular target: T2, FcγRIIb extracellular domain with C-terminal His tag (human, UniProt P31994 43-217); assay: SPR; KD for FcγRIIaH divided by KD for FcγRIIb
# T2 construct: extracellular domain
# T2 sequence (looked up): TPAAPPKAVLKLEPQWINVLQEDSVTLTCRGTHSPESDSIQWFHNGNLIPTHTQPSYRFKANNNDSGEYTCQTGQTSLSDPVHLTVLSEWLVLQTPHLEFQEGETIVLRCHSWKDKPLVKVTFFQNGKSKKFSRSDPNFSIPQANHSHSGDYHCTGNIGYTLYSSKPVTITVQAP
# [3] = molecular target: T2, FcγRIIb extracellular domain with …; assay: SPR; KD of IL6R-B3/IL6R-L divided by KD of the variant
# [4] = molecular target: T3, FcγRIIa type R (allotype R131) extracellular domain with C-terminal His tag (human, UniProt P12318 34-217); assay: as above
# T3 construct: extracellular domain; also called FcγRIIaR; FcγRIIa R type
# T3 sequence (looked up): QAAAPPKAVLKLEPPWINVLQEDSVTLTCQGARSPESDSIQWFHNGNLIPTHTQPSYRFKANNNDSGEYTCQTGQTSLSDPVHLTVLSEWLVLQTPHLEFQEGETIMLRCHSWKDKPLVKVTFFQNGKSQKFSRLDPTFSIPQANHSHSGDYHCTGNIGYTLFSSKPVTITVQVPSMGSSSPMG
# T1 sequence (P08637 other isoform, or with tags, fused parts or gaps): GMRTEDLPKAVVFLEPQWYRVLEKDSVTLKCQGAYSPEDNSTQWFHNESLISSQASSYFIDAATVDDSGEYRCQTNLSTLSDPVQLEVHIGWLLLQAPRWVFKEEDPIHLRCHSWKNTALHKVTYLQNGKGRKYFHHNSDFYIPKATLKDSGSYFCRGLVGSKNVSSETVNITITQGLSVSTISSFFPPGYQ
Binder,Kd [1] [µM],also measured
"IL6R-BP117/IL6R-L (antibody, human IgG1, kappa, name in EU numbering, Alterations introduced into IL6R-B3; also called P238D/K326D; copies: 2 + 2) heavy: QVQLQESGPGLVKPSETLSLTCAVSGHSISHDHAWSWVRQPPGEGLEWIGFISYSGITNYNPSLQGRVTISRDNSKNTLYLQMNSLRAEDTAVYYCARSLARTTAMDYWGEGTLVTVSSASTKGPSVFPLAPSSKSTSGGTAALGCLVKDYFPEPVTVSWNSGALTSGVHTFPAVLQSSGLYSLSSVVTVPSSSLGTQTYICNVNHKPSNTKVDKKVEPKSCDKTHTCPPCPAPELLGGDSVFLFPPKPKDTLMISRTPEVTCVVVDVSHEDPEVKFNWYVDGVEVHNAKTKPREEQYNSTYRVVSVLTVLHQDWLNGKEYKCKVSNDALPAPIEKTISKAKGQPREPQVYTLPPSRDELTKNQVSLTCLVKGFYPSDIAVEWESNGQPENNYKTTPPVLDSDGSFFLYSKLTVDKSRWQQGNVFSCSVMHEALHNHYTQESLSLSP light: not shown",67,
"IL6R-BP126/IL6R-L (antibody, human IgG1, kappa, name in EU numbering, Alterations introduced into IL6R-B3; also called P238D/K326L; copies: 2 + 2) heavy: QVQLQESGPGLVKPSETLSLTCAVSGHSISHDHAWSWVRQPPGEGLEWIGFISYSGITNYNPSLQGRVTISRDNSKNTLYLQMNSLRAEDTAVYYCARSLARTTAMDYWGEGTLVTVSSASTKGPSVFPLAPSSKSTSGGTAALGCLVKDYFPEPVTVSWNSGALTSGVHTFPAVLQSSGLYSLSSVVTVPSSSLGTQTYICNVNHKPSNTKVDKKVEPKSCDKTHTCPPCPAPELLGGDSVFLFPPKPKDTLMISRTPEVTCVVVDVSHEDPEVKFNWYVDGVEVHNAKTKPREEQYNSTYRVVSVLTVLHQDWLNGKEYKCKVSNLALPAPIEKTISKAKGQPREPQVYTLPPSRDELTKNQVSLTCLVKGFYPSDIAVEWESNGQPENNYKTTPPVLDSDGSFFLYSKLTVDKSRWQQGNVFSCSVMHEALHNHYTQESLSLSP light: not shown",56,
"IL6R-BP121/IL6R-L (antibody, human IgG1, kappa, name in EU numbering, Alterations introduced into IL6R-B3; also called P238D/K326Q; copies: 2 + 2) heavy: QVQLQESGPGLVKPSETLSLTCAVSGHSISHDHAWSWVRQPPGEGLEWIGFISYSGITNYNPSLQGRVTISRDNSKNTLYLQMNSLRAEDTAVYYCARSLARTTAMDYWGEGTLVTVSSASTKGPSVFPLAPSSKSTSGGTAALGCLVKDYFPEPVTVSWNSGALTSGVHTFPAVLQSSGLYSLSSVVTVPSSSLGTQTYICNVNHKPSNTKVDKKVEPKSCDKTHTCPPCPAPELLGGDSVFLFPPKPKDTLMISRTPEVTCVVVDVSHEDPEVKFNWYVDGVEVHNAKTKPREEQYNSTYRVVSVLTVLHQDWLNGKEYKCKVSNQALPAPIEKTISKAKGQPREPQVYTLPPSRDELTKNQVSLTCLVKGFYPSDIAVEWESNGQPENNYKTTPPVLDSDGSFFLYSKLTVDKSRWQQGNVFSCSVMHEALHNHYTQESLSLSP light: not shown",52,
"IL6R-BP483/IL6R-L (antibody, human IgG1, kappa, name in EU numbering, copies: 2 + 2) heavy: QVQLQESGPGLVKPSETLSLTCAVSGHSISHDHAWSWVRQPPGEGLEWIGFISYSGITNYNPSLQGRVTISRDNSKNTLYLQMNSLRAEDTAVYYCARSLARTTAMDYWGEGTLVTVSSASTKGPSVFPLAPSSKSTSGGTAALGCLVKDYFPEPVTVSWNSGALTSGVHTFPAVLQSSGLYSLSSVVTVPSSSLGTQTYICNVNHKPSNTKVDKKVEPKSCDKTHTCPPCPAPDLLGDDSVFLFPPKPKDTLMISRTPEVTCVVVDLAEEDGEVKFNWYVDGVEVHNAKTKPREEQYNSTYRVVSVLTVLHQDWLNGKEYKCKVSNKALPAPIEKTISKAKGQPREPQVYTLPPSRDELTKNQVSLTCLVKGFYPSDIAVEWESNGQPENNYKTTPPVLDSDGSFFLYSKLTVDKSRWQQGNVFSCSVMHEALHNHYTQESLSLSP light: not shown",,KD(IIaH)/KD(IIb) [2]: 231; KD(IIb) OF PARENT POLYPEPTIDE/KD(IIb) OF ALTERED POLYPEPTIDE [3]: 39.7; KD(IIaR) OF PARENT POLYPEPTIDE/KD(IIaR) OF ALTERED POLYPEPTIDE [4]: 0.8
"IL6R-BP142/IL6R-L (antibody, human IgG1, kappa, name in EU numbering, Alterations introduced into IL6R-B3; also called P238D/K326N; copies: 2 + 2) heavy: QVQLQESGPGLVKPSETLSLTCAVSGHSISHDHAWSWVRQPPGEGLEWIGFISYSGITNYNPSLQGRVTISRDNSKNTLYLQMNSLRAEDTAVYYCARSLARTTAMDYWGEGTLVTVSSASTKGPSVFPLAPSSKSTSGGTAALGCLVKDYFPEPVTVSWNSGALTSGVHTFPAVLQSSGLYSLSSVVTVPSSSLGTQTYICNVNHKPSNTKVDKKVEPKSCDKTHTCPPCPAPELLGGDSVFLFPPKPKDTLMISRTPEVTCVVVDVSHEDPEVKFNWYVDGVEVHNAKTKPREEQYNSTYRVVSVLTVLHQDWLNGKEYKCKVSNNALPAPIEKTISKAKGQPREPQVYTLPPSRDELTKNQVSLTCLVKGFYPSDIAVEWESNGQPENNYKTTPPVLDSDGSFFLYSKLTVDKSRWQQGNVFSCSVMHEALHNHYTQESLSLSP light: not shown",110,
"IL6R-BP136/IL6R-L (antibody, human IgG1, kappa, name in EU numbering, Alterations introduced into IL6R-B3; also called P238D/K326A; copies: 2 + 2) heavy: QVQLQESGPGLVKPSETLSLTCAVSGHSISHDHAWSWVRQPPGEGLEWIGFISYSGITNYNPSLQGRVTISRDNSKNTLYLQMNSLRAEDTAVYYCARSLARTTAMDYWGEGTLVTVSSASTKGPSVFPLAPSSKSTSGGTAALGCLVKDYFPEPVTVSWNSGALTSGVHTFPAVLQSSGLYSLSSVVTVPSSSLGTQTYICNVNHKPSNTKVDKKVEPKSCDKTHTCPPCPAPELLGGDSVFLFPPKPKDTLMISRTPEVTCVVVDVSHEDPEVKFNWYVDGVEVHNAKTKPREEQYNSTYRVVSVLTVLHQDWLNGKEYKCKVSNAALPAPIEKTISKAKGQPREPQVYTLPPSRDELTKNQVSLTCLVKGFYPSDIAVEWESNGQPENNYKTTPPVLDSDGSFFLYSKLTVDKSRWQQGNVFSCSVMHEALHNHYTQESLSLSP light: not shown",69,
"IL6R-BP120/IL6R-L (antibody, human IgG1, kappa, name in EU numbering, Alterations introduced into IL6R-B3; also called P238D/K326E; copies: 2 + 2) heavy: QVQLQESGPGLVKPSETLSLTCAVSGHSISHDHAWSWVRQPPGEGLEWIGFISYSGITNYNPSLQGRVTISRDNSKNTLYLQMNSLRAEDTAVYYCARSLARTTAMDYWGEGTLVTVSSASTKGPSVFPLAPSSKSTSGGTAALGCLVKDYFPEPVTVSWNSGALTSGVHTFPAVLQSSGLYSLSSVVTVPSSSLGTQTYICNVNHKPSNTKVDKKVEPKSCDKTHTCPPCPAPELLGGDSVFLFPPKPKDTLMISRTPEVTCVVVDVSHEDPEVKFNWYVDGVEVHNAKTKPREEQYNSTYRVVSVLTVLHQDWLNGKEYKCKVSNEALPAPIEKTISKAKGQPREPQVYTLPPSRDELTKNQVSLTCLVKGFYPSDIAVEWESNGQPENNYKTTPPVLDSDGSFFLYSKLTVDKSRWQQGNVFSCSVMHEALHNHYTQESLSLSP light: not shown",79,
"IL6R-BP911/IL6R-L (antibody, human IgG1, kappa, name in EU numbering, Alterations introduced into IL6R-B3; also called P238D/A330K; copies: 2 + 2) heavy: QVQLQESGPGLVKPSETLSLTCAVSGHSISHDHAWSWVRQPPGEGLEWIGFISYSGITNYNPSLQGRVTISRDNSKNTLYLQMNSLRAEDTAVYYCARSLARTTAMDYWGEGTLVTVSSASTKGPSVFPLAPSSKSTSGGTAALGCLVKDYFPEPVTVSWNSGALTSGVHTFPAVLQSSGLYSLSSVVTVPSSSLGTQTYICNVNHKPSNTKVDKKVEPKSCDKTHTCPPCPAPELLGGDSVFLFPPKPKDTLMISRTPEVTCVVVDVSHEDPEVKFNWYVDGVEVHNAKTKPREEQYNSTYRVVSVLTVLHQDWLNGKEYKCKVSNKALPKPIEKTISKAKGQPREPQVYTLPPSRDELTKNQVSLTCLVKGFYPSDIAVEWESNGQPENNYKTTPPVLDSDGSFFLYSKLTVDKSRWQQGNVFSCSVMHEALHNHYTQESLSLSP light: not shown",58,
"IL6R-BP118/IL6R-L (antibody, human IgG1, kappa, name in EU numbering, Alterations introduced into IL6R-B3; also called P238D/K326S; copies: 2 + 2) heavy: QVQLQESGPGLVKPSETLSLTCAVSGHSISHDHAWSWVRQPPGEGLEWIGFISYSGITNYNPSLQGRVTISRDNSKNTLYLQMNSLRAEDTAVYYCARSLARTTAMDYWGEGTLVTVSSASTKGPSVFPLAPSSKSTSGGTAALGCLVKDYFPEPVTVSWNSGALTSGVHTFPAVLQSSGLYSLSSVVTVPSSSLGTQTYICNVNHKPSNTKVDKKVEPKSCDKTHTCPPCPAPELLGGDSVFLFPPKPKDTLMISRTPEVTCVVVDVSHEDPEVKFNWYVDGVEVHNAKTKPREEQYNSTYRVVSVLTVLHQDWLNGKEYKCKVSNSALPAPIEKTISKAKGQPREPQVYTLPPSRDELTKNQVSLTCLVKGFYPSDIAVEWESNGQPENNYKTTPPVLDSDGSFFLYSKLTVDKSRWQQGNVFSCSVMHEALHNHYTQESLSLSP light: not shown",56,
"IL6R-BP119/IL6R-L (antibody, human IgG1, kappa, name in EU numbering, Alterations introduced into IL6R-B3; also called P238D/K326M; copies: 2 + 2) heavy: QVQLQESGPGLVKPSETLSLTCAVSGHSISHDHAWSWVRQPPGEGLEWIGFISYSGITNYNPSLQGRVTISRDNSKNTLYLQMNSLRAEDTAVYYCARSLARTTAMDYWGEGTLVTVSSASTKGPSVFPLAPSSKSTSGGTAALGCLVKDYFPEPVTVSWNSGALTSGVHTFPAVLQSSGLYSLSSVVTVPSSSLGTQTYICNVNHKPSNTKVDKKVEPKSCDKTHTCPPCPAPELLGGDSVFLFPPKPKDTLMISRTPEVTCVVVDVSHEDPEVKFNWYVDGVEVHNAKTKPREEQYNSTYRVVSVLTVLHQDWLNGKEYKCKVSNMALPAPIEKTISKAKGQPREPQVYTLPPSRDELTKNQVSLTCLVKGFYPSDIAVEWESNGQPENNYKTTPPVLDSDGSFFLYSKLTVDKSRWQQGNVFSCSVMHEALHNHYTQESLSLSP light: not shown",56,
"IL6R-BP912/IL6R-L (antibody, human IgG1, kappa, name in EU numbering, Alterations introduced into IL6R-B3; also called P238D/A330R; copies: 2 + 2) heavy: QVQLQESGPGLVKPSETLSLTCAVSGHSISHDHAWSWVRQPPGEGLEWIGFISYSGITNYNPSLQGRVTISRDNSKNTLYLQMNSLRAEDTAVYYCARSLARTTAMDYWGEGTLVTVSSASTKGPSVFPLAPSSKSTSGGTAALGCLVKDYFPEPVTVSWNSGALTSGVHTFPAVLQSSGLYSLSSVVTVPSSSLGTQTYICNVNHKPSNTKVDKKVEPKSCDKTHTCPPCPAPELLGGDSVFLFPPKPKDTLMISRTPEVTCVVVDVSHEDPEVKFNWYVDGVEVHNAKTKPREEQYNSTYRVVSVLTVLHQDWLNGKEYKCKVSNKALPRPIEKTISKAKGQPREPQVYTLPPSRDELTKNQVSLTCLVKGFYPSDIAVEWESNGQPENNYKTTPPVLDSDGSFFLYSKLTVDKSRWQQGNVFSCSVMHEALHNHYTQESLSLSP light: not shown",78,
